Data published in patent publication US5972599.

Tests used:
IL-4 (Homo sapiens) = target: T1, IL-4 (Homo sapiens) (UniProt P05112); assay: filter
T1 sequence: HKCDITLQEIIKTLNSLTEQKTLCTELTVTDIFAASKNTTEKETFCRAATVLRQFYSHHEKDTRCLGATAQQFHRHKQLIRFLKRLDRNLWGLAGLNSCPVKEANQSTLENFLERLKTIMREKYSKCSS

TNF-alpha (Homo sapiens) [1] = target: TNF-alpha (Homo sapiens) (UniProt P01375); assay: competition; conditions: random RNA control, U937 cells
TNF-alpha (Homo sapiens) [2] = target: TNF-alpha (Homo sapiens) (UniProt P01375); assay: filter
TNF-alpha (Mus musculus) = target: T2, TNF-alpha (Mus musculus) (UniProt P06804); assay: filter; conditions: specificity control
T2 sequence: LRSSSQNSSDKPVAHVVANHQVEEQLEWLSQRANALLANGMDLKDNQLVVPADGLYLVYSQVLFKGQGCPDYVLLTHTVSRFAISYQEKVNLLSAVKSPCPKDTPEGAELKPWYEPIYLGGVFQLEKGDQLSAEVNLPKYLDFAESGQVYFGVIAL

TNF-beta (Homo sapiens) = target: T3, TNF-beta (Homo sapiens) (UniProt P01374); assay: filter; conditions: specificity control
T3 sequence: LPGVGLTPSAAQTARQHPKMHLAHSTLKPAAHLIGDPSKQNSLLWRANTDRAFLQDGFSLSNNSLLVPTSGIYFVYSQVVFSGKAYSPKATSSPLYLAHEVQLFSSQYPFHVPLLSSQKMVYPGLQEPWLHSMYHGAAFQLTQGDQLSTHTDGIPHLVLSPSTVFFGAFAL

RANTES (Homo sapiens) = target: T4, RANTES (Homo sapiens) (UniProt P13501); assay: filter
T4 sequence: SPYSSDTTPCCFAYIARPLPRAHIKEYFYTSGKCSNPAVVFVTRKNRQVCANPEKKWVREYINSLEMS

IFN-gamma (Homo sapiens) = target: T5, IFN-gamma (Homo sapiens) (UniProt P01579); assay: filter
T5 sequence: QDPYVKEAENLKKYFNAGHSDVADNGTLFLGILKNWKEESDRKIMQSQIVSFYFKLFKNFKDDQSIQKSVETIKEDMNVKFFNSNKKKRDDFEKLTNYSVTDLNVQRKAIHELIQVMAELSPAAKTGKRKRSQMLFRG

IFN-gamma (Mus musculus) = target: T6, IFN-gamma (Mus musculus) (UniProt P01580); assay: filter; conditions: mouse protein
T6 sequence: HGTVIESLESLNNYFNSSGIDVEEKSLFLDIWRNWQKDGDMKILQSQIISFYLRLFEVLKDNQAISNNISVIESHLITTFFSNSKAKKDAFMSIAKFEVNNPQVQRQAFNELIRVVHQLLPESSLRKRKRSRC

[3] = 2'-F all C, 2'-NH2 all U, random pool
[4] = 2'-NH2 all C and U, random pool
[5] = 2'-F all C, 2'-NH2 all U, round 17 pool
[6] = 2'-F all C and U, round 17 pool

TNF-alpha (Homo sapiens), sequence (P01375 77-233): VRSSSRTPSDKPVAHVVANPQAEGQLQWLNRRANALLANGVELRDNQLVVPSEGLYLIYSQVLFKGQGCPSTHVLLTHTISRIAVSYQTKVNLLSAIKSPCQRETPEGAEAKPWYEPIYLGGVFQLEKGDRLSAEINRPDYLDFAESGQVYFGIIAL

“GGGAGACAAGAAUAAACGCUCAANNNNNNNNNNNNNNNNNNNNNNNNNNNNNNNNNNNNNNNNUUCGACAGGAGGCUCACAACAGGC [40N8 random pool 2'F/NH2]” showed a Kd (IL-4 (Homo sapiens); [3]) greater than 20 µM.

For “GGGAGACAAGAAUAAACGCUCAANNNNNNNNNNNNNNNNNNNNNNNNNNNNNNNNNNNNNNNNUUCGACAGGAGGCUCACAACAGGC [40N8 random pool 2'F]”, the Kd (IL-4 (Homo sapiens); 2'-F all C and U, random pool) was greater than 20 µM.

Work on “GGGAGACAAGAAUAAACGCUCAANNNNNNNNNNNNNNNNNNNNNNNNNNNNNNNNNNNNNNNNUUCGACAGGAGGCUCACAACAGGC [40N8 random pool 2'NH2]” yielded a Kd (IL-4 (Homo sapiens); [4]) greater than 20 µM.

Sequence “GGGAGACAAGAAUAAACGCUCAANNNNNNNNNNNNNNNNNNNNNNNNNNNNNNNNNNNNNNNNUUCGACAGGAGGCUCACAACAGGC [IL-4 round 17 pool 2'F/NH2]” has a Kd (IL-4 (Homo sapiens); [5]) of 0.055 µM.

For “GGGAGACAAGAAUAAACGCUCAANNNNNNNNNNNNNNNNNNNNNNNNNNNNNNNNNNNNNNNNUUCGACAGGAGGCUCACAACAGGC [IL-4 round 17 pool 2'F]”, the Kd (IL-4 (Homo sapiens); [6]) was 0.03 µM.

Sequence “GGGAGACAAGAAUAAACGCUCAANNNNNNNNNNNNNNNNNNNNNNNNNNNNNNNNNNNNNNNNUUCGACAGGAGGCUCACAACAGGC [IL-4 round 17 pool 2'NH2]” has a Kd (IL-4 (Homo sapiens); 2'-NH2 all C and U, round 17 pool, high filter background, earlier round about 100 nM) of 1 µM.

“GGGAGCUCAGAAUAAACGCUCAANNNNNNNNNNNNNNNNNNNNNNNNNNNNNNUUCGACAUGAGGCCCGGAUCCGGC [TNF random RNA]” was tested, and the Ki (TNF-alpha (Homo sapiens) [1]) was greater than 1000 µM and the Kd (TNF-alpha (Homo sapiens) [2]; estimated, flat curves up to 10 uM protein) was greater than 1000 µM.

For “GGGAGCUCAGAAUAAACGCUCAANNNNNNNNNNNNNNNNNNNNNNNNNNNNNNUUCGACAUGAGGCCCGGAUCCGGC [TNF round 6 C-SELEX pool]”, the Kd (TNF-alpha (Homo sapiens) [2]; C-SELEX final pool) was 0.4 µM.

For “GGGAGCUCAGAAUAAACGCUCAANNNNNNNNNNNNNNNNNNNNNNNNNNNNNNUUCGACAUGAGGCCCGGAUCCGGC [TNF round 23 A-SELEX pool]”, the Kd (TNF-alpha (Mus musculus)) was greater than 1000 µM, the Kd (TNF-alpha (Homo sapiens) [2]; round 23A pool) was 0.7 µM and the Kd (TNF-beta (Homo sapiens)) was greater than 1000 µM.

“GGGAGGACGATGCGGNNNNNNNNNNNNNNNNNNNNNNNNNNNNNNNNNNNNNNNNCAGACGACTCGCCCGA [RANTES random ssDNA pool 40N7]” was tested, and the Kd (RANTES (Homo sapiens); starting pool, 150 mM NaCl) was 3 µM.

“GGGAGGACGATGCGGNNNNNNNNNNNNNNNNNNNNNNNNNNNNNNNNNNNNNNNNCAGACGACTCGCCCGA [RANTES round 19 ssDNA pool]” gave a Kd (RANTES (Homo sapiens); round 19, 150 mM NaCl, text says 20 nM) of 0.018 µM.

“GGGAGGACGAUGCGGNNNNNNNNNNNNNNNNNNNNNNNNNNNNNNNNNNNNNNNNCAGACGACUCGCCCGA [40N7 random pool 2'F/NH2]” gave a Kd (IFN-gamma (Homo sapiens); [3]) greater than 0.7 µM.

In the case of “GGGAGGACGAUGCGGNNNNNNNNNNNNNNNNNNNNNNNNNNNNNNNNNNNNNNNNCAGACGACUCGCCCGA [40N7 random pool 2'F]”, the Kd (IFN-gamma (Homo sapiens); 2'-F all C and U, random pool) is reported as greater than 0.7 µM.

“GGGAGGACGAUGCGGNNNNNNNNNNNNNNNNNNNNNNNNNNNNNNNNNNNNNNNNCAGACGACUCGCCCGA [40N7 random pool 2'NH2]” was tested, and the Kd (IFN-gamma (Homo sapiens); [4]) was greater than 0.7 µM.

“GGGAGGACGAUGCGGNNNNNNNNNNNNNNNNNNNNNNNNNNNNNNNNNNNNNNNNCAGACGACUCGCCCGA [IFN-gamma round 17 pool 2'F/NH2]” was tested, and the Kd (IFN-gamma (Homo sapiens); [5]) was 0.115 µM and the Kd (IFN-gamma (Mus musculus); 2'-F all C, 2'-NH2 all U) was 0.175 µM.

“GGGAGGACGAUGCGGNNNNNNNNNNNNNNNNNNNNNNNNNNNNNNNNNNNNNNNNCAGACGACUCGCCCGA [IFN-gamma round 17 pool 2'F]” showed a Kd (IFN-gamma (Homo sapiens); [6]) of 0.07 µM and a Kd (IFN-gamma (Mus musculus); 2'-F all C and U) of 0.41 µM.

Work on “GGGAGGACGAUGCGGNNNNNNNNNNNNNNNNNNNNNNNNNNNNNNNNNNNNNNNNCAGACGACUCGCCCGA [IFN-gamma round 17 pool 2'NH2]” yielded a Kd (IFN-gamma (Homo sapiens); 2'-NH2 all C and U, round 17 pool) of 0.02 µM and a Kd (IFN-gamma (Mus musculus); 2'-NH2 all C and U) of 0.085 µM.
